Here are results for one molecule from patent US12006503B2, “Fusion proteins and methods thereof” (The Trustees of Columbia University in the City of New York, priority 2012, dated 2024).

Assay [1] relates to Ink4A;Arf-/- astrocytes in immunodeficient mice. The experiment in a line: Subcutaneous tumor xenograft formation by lentivirus-transduced Ink4A;Arf-/- astrocytes. It is filed as in vivo, mouse. Conditions: Ink4Arf-/- astrocytes expressing the construct. The source says:
FIG. 3B are photomicrographs showing of immunofluoresence staining of tumors from mice injected with Ink4A; Arf−/− astrocytes expressing FGFR3-TACC3 showing positivity for glioma-specific (Nestin, Oig2 and GFAP) and proliferation markers (Ki67 and pHH3). Sub-cutaneous tumors were generated by Ink4A; Arf−/− astrocytes expressing FGFR-TACC fusions.
Subcutaneous xenografts and drug treatment. […] For experiments with FGFR inhibitors, mice carrying ˜200-300 mm 3 subcutaneous tumors derived from Ink4A; Arf−/− astrocytes were randomized to receive 50 mg/kg PD173074 in 0.05 M lactate buffer (pH 5) or an equal volume of lactate buffer by oral gavage. Treatment was administered for three cycles consisting of four consecutive days followed by two days of rest. […] Data are expressed as mean±SE.

Assay [2] has as its system Rat1A cells. The experiment in a line: Karyotype analysis (chromosome counts, aneuploidy) of Rat1A cells. It is filed as cell-based, rat. Conditions: Rat1A cells, 100 cells counted. As for the experimental part: Distribution of chromosome counts of cells arrested in mitosis and analyzed for karyotypes using DAPI. Chromosomes were counted in 100 metaphase cells for each condition to determine the ploidy and the diversity of chromosome counts within the cell population. FGFR3-TACC3 fusion induces aneuploidy.
The upper panel is a karyotype analysis of Rat1A cells transduced with control or FGFR3-TACC3 lentivirus and treated with vehicle (DMSO) or PD173470 (100 nM) for five days.
Karyotype analysis. Cultured cells were colcemid (20 ng/ml) treated for 90 minutes before harvesting for karyotopic analysis as detailed in Extended Experimental procedures. At least one hundred cells in metaphase were examined for chromosome count. PMSCS was scored in cells where a majority of the sister chromosomes were no longer associated. Two-tailed unpaired t-tests with Welch's correction were performed for comparison of means analysis.
Karyotypic Analysis. The colcemid treated cells were trypsinized, centrifuged for 7 minutes at 200×g, and the cell pellet re-suspended in warmed hypotonic solution and incubated at 37° C. for 13 minutes. The swollen cells were then centrifuged and the pellet re-suspended in 8 ml of Carnoy's fixative (3:1 methanol:glacial acetic acid). The cell suspension was centrifuged and washed twice in Carnoy's fixative. After the last centrifugation, the cells were resuspended in 0.5 to 1 ml of freshly prepared fixative to produce an opalescent cell suspension. Drops of the final cell suspension were placed on clean slides and air-dried. Slides were stained with DAPI and metaphases were analyzed under a fluorescent microscope.

Assay [3] has as its system Rat1. Briefly: Subcutaneous tumor xenografts formed by transduced Rat1 cells. It is filed as in vivo, rat. Conditions: Rat1 cells expressing the construct.
For assay [4], the system named is Balb 3T3. Briefly: Soft agar colony assay, Balb 3T3 cells. The class given is cell-based. The following applies: Balb 3T3 cells transduced with the construct.
For assay [5], the system named is Rat1. Briefly: Soft agar colony assay, Rat1 cells. The class given is cell-based, rat. The following applies: Rat1 cells transduced with the construct. The source says: FGFR1-TACC1 and FGFR3-TACC3 induce anchorage-independent growth in Rat1A fibroblasts. The number of soft agar colonies was scored from triplicate samples 14 days after plating. Representative microphotographs are shown.

B1: FGFR3: wild type FGFR3 expressed by lentivirus (protein, listed as Homo sapiens)
chain: MGAPACALALCVAVAIVAGASSESLGTEQRVVGRAAEVPGPEPGQQEQLVFGSGDAVELSCPPPGGGPMGPTVWVKDGTGLVPSERVLVGPQRLQVLNASHEDSGAYSCRQRLTQRVLCHFSVRVTDAPSSGDDEDGEDEAEDTGVDTGAPYWTRPERMDKKLLAVPAANTVRFRCPAAGNPTPSISWLKNGREFRGEHRIGGIKLRHQQWSLVMESVVPSDRGNYTCVVENKFGSIRQTYTLDVLERSPHRPILQAGLPANQTAVLGSDVEFHCKVYSDAQPHIQWLKHVEVNGSKVGPDGTPYVTVLKTAGANTTDKELEVLSLHNVTFEDAGEYTCLAGNSIGFSHHSAWLVVLPAEEELVEADEAGSVYAGILSYGVGFFLFILVVAAVTLCRLRSPPKKGLGSPTVHKISRFPLKRQVSLESNASMSSNTPLVRIARLSSGEGPTLANVSELELPADPKWELSRARLTLGKPLGEGCFGQVVMAEAIGIDKDRAAKPVTVAVKMLKDDATDKDLSDLVSEMEMMKMIGKHKNIINLLGACTQGGPLYVLVEYAAKGNLREFLRARRPPGLDYSFDTCKPPEEQLTFKDLVSCAYQVARGMEYLASQKCIHRDLAARNVLVTEDNVMKIADFGLARDVHNLDYYKKTTNGRLPVKWMAPEALFDRVYTHQSDVWSFGVLLWEIFTLGGSPYPGIPVEELFKLLKEGHRMDKPANCTHDLYMIMRECWHAAPSQRPTFKQLVEDLDRVLTVTSTDEYLDLSAPFEQYSPGGQDTPSSSSSGDDSVFAHDLLPPAPPSSGGSRT
Take B1: in assay [1], the “Subcutaneous tumor xenografts (tumors formed/injections)” value is 0/5. In assay [2], the “Average variation from mean number” value came out at 1.3, the “Mean number (chromosomal number)” value came to 42.1, the Percent aneuploidy is 33% and the “Range (chromosomal number)” value is given as 35-44. The “Subcutaneous tumor xenografts (tumors formed/injections)” value in assay [3] is 0/5. Also, in assay [4], the soft agar colonies is 0. This molecule also yielded a soft agar colonies in assay [5] of 0.
